Measured values as given in the supplement of paper PMC7877785.
± gives the uncertainty stated by the source.

Test: self-splicing fitness, log relative to wild type (ln ratio); higher = more splicing; Tetrahymena group I intron in knt gene, E. coli kanamycin selection, DiMSum; sequences stand for … in CUCUCU…GGAGGGAAAAGUUAUCAGGCAUGCACCUGGUAGCUAGUCUUUAAACCAAUAGAUUGCAUCGGUUUAAAAGGCAAGACCGUCAAAUUGCGGGAAAGGGGUCAACAGCCGUUCAGUACCAAGUCUCAGGGGAAACUUUGAGAUGGCCUUGCAAAGGGUAUGGUAAUAAGCUGACGGACAUGGUCCUAACCACGCAGCCAAGUCCUAAGUCAACAGAUCUUCUGUUGAUAUGGAUGCAGUUCACAGACUAAAUGUCGGUCGGGGAAGAUGUAUUCUUCUCAUAAGAUAUAGUCGGACCUCUCCUUAAUGGGAGCUAGCGGAUGAAGUGAUGCAACACUGGAGCCGCUGGGAACUAAUUUGUAUGCGAAAGUAUAUUGAUUAGUUUUGGAGUACUCGUGGUCG
How it was run: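 DiMSum derived fitness as the error-weighted combination of fold changes across replicates, kanamycin versus no kanamycin, normalised to wild type. E. coli BL21(DE3) held the library, which randomised all eight P1ex-region intron nucleotides within the knt kanamycin-resistance gene on pET-22b(+). Six replicate transformations grew overnight at 37°C or 30°C on LB agar with or without 25 μg/mL kanamycin, also containing 100 μg/mL carbenicillin, 50 μM IPTG and 0.2% rhamnose, and pooled colonies were amplicon-sequenced on an Illumina HiSeq 2500.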

## AGAAAGCAAUAUUACGCAAC
30 °C
  self-splicing fitness (ln): -1.96 ± 0.25
37 °C
  self-splicing fitness (ln): -2.02 ± 0.39

## AGAAAGCAAUAUUACGCAGU
30 °C
  self-splicing fitness (ln): -2.5 ± 0.16
37 °C
  self-splicing fitness (ln): -2.07 ± 0.2

## AGAAAGCAAUAUUACGCCCU
30 °C
  self-splicing fitness (ln): 0.0807 ± 0.13
37 °C
  self-splicing fitness (ln): 0.131 ± 0.14

## AGAAAGCAAUAUUACGCUCA
30 °C
  self-splicing fitness (ln): -0.775 ± 0.15
37 °C
  self-splicing fitness (ln): 1.19 ± 0.18

## AGAAAGCAAUAUUACGCUCC
30 °C
  self-splicing fitness (ln): -1.89 ± 0.23
37 °C
  self-splicing fitness (ln): -1.19 ± 0.24

## AGAAAGCAAUAUUACGCUGG
30 °C
  self-splicing fitness (ln): -3.7 ± 0.36
37 °C
  self-splicing fitness (ln): -2.77 ± 0.31

## AGAAAGCAAUAUUACGCUUU
30 °C
  self-splicing fitness (ln): -3.57 ± 0.23
37 °C
  self-splicing fitness (ln): -3.24 ± 0.4

## AGAAAGCAAUAUUACGGCGA
30 °C
  self-splicing fitness (ln): -0.0252 ± 0.17
37 °C
  self-splicing fitness (ln): -1.02 ± 0.14

## AGAAAGCAAUAUUACGGGCU
30 °C
  self-splicing fitness (ln): -1.04 ± 0.12
37 °C
  self-splicing fitness (ln): -0.993 ± 0.13

## AGAAAGCAAUAUUACGGGGG
30 °C
  self-splicing fitness (ln): -3.3 ± 0.15
37 °C
  self-splicing fitness (ln): -2.71 ± 0.17

## AGAAAGCAAUAUUACGGUGU
30 °C
  self-splicing fitness (ln): -2.76 ± 0.098
37 °C
  self-splicing fitness (ln): -1.28 ± 0.096

## AGAAAGCAAUAUUACGUCGA
30 °C
  self-splicing fitness (ln): -0.974 ± 0.069
37 °C
  self-splicing fitness (ln): -0.242 ± 0.08

## AGAAAGCAAUAUUACGUGCC
30 °C
  self-splicing fitness (ln): -0.45 ± 0.12
37 °C
  self-splicing fitness (ln): -0.309 ± 0.16

## AGAAAGCAAUAUUACGUUCG
30 °C
  self-splicing fitness (ln): -0.631 ± 0.07
37 °C
  self-splicing fitness (ln): 0.484 ± 0.092

## AGAAAGCAAUAUUACGUUCU
30 °C
  self-splicing fitness (ln): -2.72 ± 0.15
37 °C
  self-splicing fitness (ln): -1.41 ± 0.14

## AGAAAGCAAUAUUACGUUUG
30 °C
  self-splicing fitness (ln): -2.48 ± 0.14
37 °C
  self-splicing fitness (ln): -2.24 ± 0.21

## AGACAGCAAUAUUACGAAGU
30 °C
  self-splicing fitness (ln): -3.47 ± 0.14
37 °C
  self-splicing fitness (ln): -2.26 ± 0.15

## AGACAGCAAUAUUACGACAU
30 °C
  self-splicing fitness (ln): -0.107 ± 0.011
37 °C
  self-splicing fitness (ln): -0.0048 ± 0.032

## AGACAGCAAUAUUACGAUCG
30 °C
  self-splicing fitness (ln): -0.599 ± 0.072
37 °C
  self-splicing fitness (ln): 0.599 ± 0.11

## AGACAGCAAUAUUACGCAAG
30 °C
  self-splicing fitness (ln): -2.89 ± 0.11
37 °C
  self-splicing fitness (ln): -0.553 ± 0.1

## AGACAGCAAUAUUACGCACU
30 °C
  self-splicing fitness (ln): -0.646 ± 0.12
37 °C
  self-splicing fitness (ln): -0.203 ± 0.13

## AGACAGCAAUAUUACGCAGA
30 °C
  self-splicing fitness (ln): -2.56 ± 0.27
37 °C
  self-splicing fitness (ln): -1.38 ± 0.2

## AGACAGCAAUAUUACGCAUA
30 °C
  self-splicing fitness (ln): -2.73 ± 0.18
37 °C
  self-splicing fitness (ln): -1.23 ± 0.11

## AGACAGCAAUAUUACGCCAG
30 °C
  self-splicing fitness (ln): -4.58 ± 0.46
37 °C
  self-splicing fitness (ln): -3.27 ± 0.26

## AGACAGCAAUAUUACGCGCA
30 °C
  self-splicing fitness (ln): -0.449 ± 0.084
37 °C
  self-splicing fitness (ln): 0.312 ± 0.13

## AGACAGCAAUAUUACGCGCC
30 °C
  self-splicing fitness (ln): -0.399 ± 0.14
37 °C
  self-splicing fitness (ln): -0.637 ± 0.12

## AGACAGCAAUAUUACGCUUU
30 °C
  self-splicing fitness (ln): -3.18 ± 0.18
37 °C
  self-splicing fitness (ln): -1.23 ± 0.12

## AGACAGCAAUAUUACGGAUA
30 °C
  self-splicing fitness (ln): -2.97 ± 0.12
37 °C
  self-splicing fitness (ln): -2.17 ± 0.13

## AGACAGCAAUAUUACGGGUC
30 °C
  self-splicing fitness (ln): -3.04 ± 0.18
37 °C
  self-splicing fitness (ln): -2.92 ± 0.31

## AGACAGCAAUAUUACGUCCC
30 °C
  self-splicing fitness (ln): -2.45 ± 0.18
37 °C
  self-splicing fitness (ln): -0.529 ± 0.17

## AGACAGCAAUAUUACGUCCG
30 °C
  self-splicing fitness (ln): -0.314 ± 0.12
37 °C
  self-splicing fitness (ln): -0.305 ± 0.15

## AGACAGCAAUAUUACGUCGC
30 °C
  self-splicing fitness (ln): -2.96 ± 0.2
37 °C
  self-splicing fitness (ln): -1.98 ± 0.19

## AGACAGCAAUAUUACGUCUU
30 °C
  self-splicing fitness (ln): -4.54 ± 0.25
37 °C
  self-splicing fitness (ln): -2.74 ± 0.18

## AGACAGCAAUAUUACGUUCC
30 °C
  self-splicing fitness (ln): -2.2 ± 0.16
37 °C
  self-splicing fitness (ln): -1.77 ± 0.18

## AGACAGCAAUAUUACGUUCG
30 °C
  self-splicing fitness (ln): -0.687 ± 0.05
37 °C
  self-splicing fitness (ln): 0.0905 ± 0.072

## AGAGAGCAAUAUUACGACUU
30 °C
  self-splicing fitness (ln): -1.7 ± 0.15
37 °C
  self-splicing fitness (ln): -0.522 ± 0.15

## AGAGAGCAAUAUUACGAGAU
30 °C
  self-splicing fitness (ln): -2.92 ± 0.37
37 °C
  self-splicing fitness (ln): -1.38 ± 0.27

## AGAGAGCAAUAUUACGAGGG
30 °C
  self-splicing fitness (ln): -3.58 ± 0.39
37 °C
  self-splicing fitness (ln): -2.35 ± 0.42

## AGAGAGCAAUAUUACGAGUG
37 °C
  self-splicing fitness (ln): -2.15 ± 0.34

## AGAGAGCAAUAUUACGGAAG
30 °C
  self-splicing fitness (ln): -3.74 ± 0.33
37 °C
  self-splicing fitness (ln): -1.32 ± 0.22

## AGAGAGCAAUAUUACGGCAC
37 °C
  self-splicing fitness (ln): -1.68 ± 0.18

## AGAGAGCAAUAUUACGGUUU
30 °C
  self-splicing fitness (ln): -1.98 ± 0.19
37 °C
  self-splicing fitness (ln): -2.58 ± 0.25

## AGAGAGCAAUAUUACGUAGA
30 °C
  self-splicing fitness (ln): -3.63 ± 0.25
37 °C
  self-splicing fitness (ln): -2.65 ± 0.34

## AGAGAGCAAUAUUACGUCAG
30 °C
  self-splicing fitness (ln): -0.659 ± 0.45

## AGAGAGCAAUAUUACGUGGC
30 °C
  self-splicing fitness (ln): -3.07 ± 0.25
37 °C
  self-splicing fitness (ln): -1.59 ± 0.35

## AGAGAGCAAUAUUACGUUCC
30 °C
  self-splicing fitness (ln): -1.63 ± 0.18
37 °C
  self-splicing fitness (ln): -3.14 ± 0.47

## AGAGAGCAAUAUUACGUUCU
30 °C
  self-splicing fitness (ln): -3.19 ± 0.41
37 °C
  self-splicing fitness (ln): -2.26 ± 0.45

## AGAUAGCAAUAUUACGAAAG
30 °C
  self-splicing fitness (ln): -2.68 ± 0.2
37 °C
  self-splicing fitness (ln): -1.23 ± 0.21
